The DeepSol protein solubility set

Test: soluble on expression in E. coli; label from the status in PepcDB or PDB records
For “SRGMTPGSRLIDYQLIDSTEELAAILGCGHPSSIHKITRVRLANDIPMAIESSHIPFELAGELNESHFQSSIYDHIERYNSIPISRAKQELEPSAATTEEANILGIQKGAPVLLIKRTTYLQNGTAFEHAKSVYRGDRYTFVHYMDRLS”, the “soluble on expression in E. coli” value was “not soluble”. For “SRIKMKKARKILAEKRAAAPVVSVPCIPPHRLSKITNRLTIQRKSQFMQRLHSYWTLKRQSRNGVPLLRRLQTHLQSQRNCDQVGRDSEDKNWALKEQLKSWQRLRHDLERARLLVELIRKREKLKRETIKVQQIAMEMQLT”, the “soluble on expression in E. coli” value was “not soluble”. For “SRLYRHNLMEDVFNMENESFMQETRLMENEYSVNLPTRFYYKKRWNNGFVNIVNIFRACMVIGTPGSGKSYAIVNSYIRQLIAKGFAIYIYDYKFDDLSTIAYNSLLKNMDKYEVKPRFYVINFDDPRRSHRCNPINPEFMTDISDAYEASYTIMLNLNRTWIEKQGDFFVESPIILLAAIIWYLKIYKNGIYCTFPHAVELLNKPYSDLFTILTSYPELENYLSPFMDAWKGNAQDQLQGQIASAKIPLTRMISPQLYWVMTGNDFSLDINNPKEPKLLCVGNNPDRQNIYSAALGLYNSRIVKLINKKKQLKCAVIIDELPTIYFRGLDNLIATARSNKVGVLLGFQDFSQLTRDYGEKESKVIQNTVGNIFSGQVVGETAKTLSERFGKVLQQRQSVSINRQDVSTSINTQLDSLIPASKIANLSQGTFVGAVADNFDERIEQKIFHAEIVVDHTKISAEEKAYQKIPVINDFKDRNGNDIMMQQIQRNYDQIKADAQAIINEEMRRIKNDPELRKRLGLEDEKGKDPDKS”, the “soluble on expression in E. coli” value was “not soluble”. In the case of “SSAESVSCTVKSPVALQIGDAVSDSSRPGVYITDITLAEPVNIQEISFKNFYTAYLTVRLQRRHGSTASKWVTCLKNYCLMGNPHAEAGSHDYFSIYRQQMSTEPDNVTTVRLILRQPSSEWLSFSIEEINIYPCTKEDSERDVPAWLSTLTPVDEPLDLKGLPDPETVSSSIQQMWALTEIMQASQTAASIGRFDVEGAYDVKLLSYT”, the “soluble on expression in E. coli” value is reported as “not soluble”. For “SSAEVKVTGQNQEQFLLLAKSAKGAALATLIHQVLEAPGVYVFGELLDMPNVRELAESDFASTFRLLTVFAYGTYADYLAEARNLPPLTEAQKNKLRHLSVVTLAAKVKCIPYAVLLEALALRNVRQLEDLVIEAVYADVLRGSLDQRNQRLEVDYSIGRDIQRQDLSAIARTLQEWCVGCEVVLSGIEEQVSRANQHKEQQLGLKQQIESEVANLKKTIKVTTAAAAAATSQDPEQHLTELREPAPGTNQRQPSKKASKGKGLRGSAKIWSKSN”, the “soluble on expression in E. coli” value was “soluble”. In the case of “SSAQFDHVTVIKKSNVYFGGLCISHTVQFEDGTKKTLGVILPTEQPLTFETHVPERMEIISGECRVKIADSTESELFRAGQSFYVPGNSLFKIETDEVLDYVCHLE”, the “soluble on expression in E. coli” value is reported as “not soluble”. For “SSESKQDEDSGTSASLSKASKETSCKRQNREGSWDSSLVMKKPKQNQVSTVTDSEVALVSAYLEQRRVRRHSQFLRVNQIQQDSDTTECDSEESNSGASSWKESESDHHLSPANIKRRKSVSRQRDMENYEVRQRPCLHCKAMRTREWLTRHFPPSASVTTPMKGEIQEENLTPGTNTKFSKF”, the “soluble on expression in E. coli” value was “soluble”. For “SSGSKSSNSSAKKSAGKPQQGGDLVVGSIGEPTLFNSLYSTDDASTDIENMLYSFLTKTDEKLNVKLSLAESIKELDGGLAYDVKIKKGVKFHDGKELTADDVVFTYSVPLSKDYKGERGSTYEMLKSVEKKGDYEVLFKLKYKDGNFYNNALDSTAILPKHILGNVPIADLEENEFNRKKPIGSGPFKFKEWKQGQYIKLEANDDYFEGRPYLDTVTYKVIPDANAAEAQLQAGDINFFNVPATDYKTAEKFNNLKIVTDLALSYVYIGWNEKNELFKDKKVRQALTTALDRESIVSQVLDGDGEVAYIPESPLSWNYPKDIDVPKFEYNEKKAKQMLAEAGWKDTNGDGILDKDGKKFSFTLKTNQGNKVREDIAVVVQEQLKKIGIEVKTQIVEWSALVEQMNPPNWDFDAMVMGWSLSTFPDQYDIFHSSQIKKGLNYVWYKNAEADKLMKDAKSISDRKQYSKEYEQIYQKIAEDQPYTFLYYPNNHMAMPENLEGYKYHPKRDLYNIEKWWLAK”, the “soluble on expression in E. coli” value was “soluble”. With “SSLRLPSAAELSGQWVLSGAEQHCDIRLNTDVLDGTTWKLAGDTACLQKLLPEAPVGWRPTPDGLTLTQADGSAVAFFSRNRDRYEHKLVDGSVRTLKKKA” the “soluble on expression in E. coli” value was “soluble”. In the case of “SSSEQKSQHCKPEEGVEAQEEALGLVGAQAPTTEEQEAAVSSSSPLVPGTLEEVPAAESAGPPQSPQGASALPTTISFTCWRQPNEGSSSQEEEGPSTSPDAESLFREALSNKVDELAHFLLRKYRAKELVTKAEMLERVIKNYKRCFPVIFGKASESLKMIFGIDVKEVDPTSNTYTLVTCLGLSYDGLLGNNQIFPKTGLLIIVLGTIAMEGDSASEEEIWEELGVMGVYDGREHTVYGEPRKLLTQDWVQENYLEYRQVPGSNPARYEFLWGPRALAETSYVKVLEHVVRVNARVRIAYPSLREAALLEEEEGV”, the “soluble on expression in E. coli” value is reported as “soluble”. With “SSSGYSSLEEDEDFFFTARTSFFRRAPPGKSRSGQPDVEKEKETHNYLSKEEIKEKVHKYNSAVTDKLKMTLNSNGIYTGFIKVQMELCKPAQPSPEPSSGGCMNTLHISSTNTVGEVIEALLRKFLVTESPTKFALYKRCHREDQVYACKLSDREHPLYLRLVAGPRTDTLSFVLREHEIGEWEAFSLPELQNFLRILDKEEDEQLQSLKRRYTAYRQKLEEALGEVWKPG” the “soluble on expression in E. coli” value was “soluble”. For “SSSSLVEAAAGLPEKGLMVCKWLGTGSAGYGGYKASEYFFPIDNEEFRENLEDWESTLQSWEKLKNYLEGMHKGPVGNQTRTH”, the “soluble on expression in E. coli” value was “soluble”. With “STFQFNFTIEDHLENELTPIRDGALTLDSSKELSVSESQKGEERDRKCSAEQFDLPQDHLWEHKSMENAAPSQDTDSPLSAASSSRNLEPHGKQPSLRAAKEHAMPKDLKKMLENKVIETLPGFQHVKLSVVKTILLKENFPGENIVSKSFSSHSDLITGVYEGGLKIWECTFDLLAYFTKAKVKFAGKKVLDLGCGSGLLGITAFKGGSKEIHFQDYNSMVIDEVTLPNVVANSTLEDEENDVNEPDVKRCRKPKVTQLYKCRFFSGEWSEFCKLVLSSEKLFVKYDLILTSETIYNPDYYSNLHQTFLRLLSKNGRVLLASKAHYFGVGGGVHLFQKFVEERDVFKTRILKIIDEGLKRFIIEITFKFPG” the “soluble on expression in E. coli” value was “not soluble”. In the case of “STGPVAPLPTPPNFPNDIALFQQAYQNWSKEIMLDATWVCSPKTPQDVVRLANWAHEHDYKIRPRGAMHGWTPLTVEKGANVEKVILADTMTHLNGITVNTGGPVATVTAGAGASIEAIVTELQKHDLGWANLPAPGVLSIGGALAVNAHGAALPAVGQTTLPGHTYGSLSNLVTELTAVVWNGTTYALETYQRNDPRITPLLTNLGRCFLTSVTMQAGPNFRQRCQSYTDIPWRELFAPKGADGRTFEKFVAESGGAEAIWYPFTEKPWMKVWTVSPTKPDSSNEVGSLGSAGSLVGKPPQAREVSGPYNYIFSDNLPEPITDMIGAINAGNPGIAPLFGPAMYEITKLGLAATNANDIWGWSKDVQFYIKATTLRLTEGGGAVVTSRANIATVINDFTEWFHERIEFYRAKGEFPLNGPVEIRCCGLDQAADVKVPSVGPPTISATRPRPDHPDWDVAIWLNVLGVPGTPGMFEFYREMEQWMRSHYNNDDATFRPEWSKGWAFGPDPYTDNDIVTNKMRATYIEGVPTTENWDTARARYNQIDPHRVFTNGFMDKLLP”, the “soluble on expression in E. coli” value is reported as “soluble”. In the case of “STGQGQSASGSSAWSTVFRHVRYENLIAGVSGGVLSNLALHPLDLVKIRFAVSDGLELRPKYNGILHCLTTIWKLDGLRGLYQGVTPNIWGAGLSWGLYFFFYNAIKSYKTEGRAERLEATEYLVSAAEAGAMTLCITNPLWVTKTRLMLQYDAVVNSPHRQYKGMFDTLVKIYKYEGVRGLYKGFVPGLFGTSHGALQFMAYELLKLKYNQHINRLPEAQLSTVEYISVAALSKIFAVAATYPYQVVRARLQDQHMFYSGVIDVITKTWRKEGVGGFYKGIAPNLIRVTPACCITFVVYENVSHFLLDLREKRK”, the “soluble on expression in E. coli” value is reported as “soluble”. In the case of “STRHPENYQWENWSLENVATILAHRFPNSYIWVIKCSRMHLHKFSCYDNFVKSNMFGAPEHNTDFGAFKHLYMLLVNAFNLSQNSLSKKSLNVWNKDSIASNCRSSPSHTTNGCQGEKVRTCEKSDESAMSFYPPSLNDASFTLIGFSKGCVVLNQLLFELKEAKKDKNIDAFIKSIRTMYWLDGGHSGGSNTWVTYPEVLKEFAQTGIIVHTHVTPYQVRDPMRSWIGKEHKKFVQILGDLGMQVTSQIHFTKEAPSIENHFRVHEVF”, the “soluble on expression in E. coli” value is reported as “soluble”. In the case of “SVKRLFKVRSDLDFAEQLWCKMSSSVISYQDLVKCFTLIIQSLQRGDIQPWLHSGSNSLLSKLIHQSYHGTMDTVSLSGTIPVQMLLEIGLDKLKKDYISFFIGQELASLNHLEYFIAPSVDIQEQVYRVQKLHHILEILVSCMPFIKSQHELLFSLTQICIKYYKQNPLDEQHIFQLPVRPTAVKNLYQSEKPQKWRVEIYSGQKKIKTVWQLSDSSPIDHLNFHKPDFSELTLNGSLEERIFFTNMVTCSQVHFK”, the “soluble on expression in E. coli” value is reported as “soluble”. In the case of “SVRVMQLTLGNSTITTQEAANSVVAYGRWPEYIKDSEANPVDQPTEPDVAACRFYTLDTVTWRKESRGWWWKLPDALKDMGLFGQNMFYHYLGRAGYTVHVQCNASKFHQGALGVFAVPEMCLAGDSTTHMFTKYENANPGEKGGEFKGSFTLDTNATNPARNFCPVDYLFGSGVLAGNAFVYPHQIINLRTNNCATLVLPYVNSLSIDSMTKHNNWGIAILPLAPLDFATESSTEIPITLTIAPMCCEFNGLRNITVPRTQ”, the “soluble on expression in E. coli” value is reported as “soluble”. For “SWQSYVDDHLMCDVEGNHLTAAAILGQDGSVWAQSAKFPQLKPQEIDGIKKDFEEPGFLAPTGLFLGGEKYMVIQGEQGAVIRGKKGPGGVTIKKTNQALVFGFYDEPMTGGQCNLVVERLGDYLIESEL”, the “soluble on expression in E. coli” value was “soluble”. For “SYPYILISGHKHPRLSMHRGAKKRKGEYFGPYPDSGAVRETLHLLQKIFPVRQCEDTVYSNRTRPCLMYQIGRCAGPCVSSIISDEEYAELVGFVRLFLQGKDQQVLKQLIEKMEVASQQLRFEDAAKFRDQIQAIRRVQEQQYVSEDSMDDMDVLGFAQENGIACIHILMIRQGKVLGSRSHFPKIPQNTSQQEVFDSFLTQYYLSHNEARTIPSRIILNQELADDLEPIQKALSEVAGRKVHFHTSPTGARGRYLKLSNTNALTAITTKINHKMTINQRFKALRETLGMESIMRMECFDISHTMGESTIASCVVFNNEGPVKQEYRRYNITGITGGDDYAAMGQALERRYSKQLDVEKIPDIIFIDGGKGQLNRAHEIIAQYWGDWPKRPIMIGIAKGVTRKPGLETLITVDGEEFNLPSDAPALHLIQHIRDESHNHAIAGHRAKRGKTRR”, the “soluble on expression in E. coli” value was “not soluble”. For “TDLVAVWDVALSDGVHKIEFEHGTTSGKRVVYVDGKEEIRKEWMFKLVGKETFYVGAAKTKATINIDAISGFAYEYTLEINGKSLKKYMEDRSKTTNTWVLHMDGENFRIVLEKDAMDVWCNGKKLETAGEFVDDGTETHFSIGNHDCYIKAVSSGKRKEGIIHTLIVD”, the “soluble on expression in E. coli” value was “not soluble”. With “TEELHKIEDIIRIFNDCFSQEYNTRLAKGGDYPIYLPAYRAENNTPSDRPYHVILFAHGYYSSALHEIAHWLVAGTARRQLEDFGYWYEPDGRSAEQQREFETVEVKPQAIEWILATAADFRYFASADNLSGNAGDNSAFKQAVYQQVKIYANRGYLPKRAEKLRQALAKFYGTTDQINLANFEIT” the “soluble on expression in E. coli” value was “not soluble”. In the case of “TEVELAYLVSESQLIGITGSNGKTTTTTMIAEVLNAGGQRGLLAGNIGFPASEVVQAANDKDTLVMELSSFQLMGVKEFRPHIAVITNLMPTHLDYHGSFEDYVAAKWNIQNQMSSSDFLVLNFNQGISKELAKTTKATIVPFSTTEKVDGAYVQDKQLFYKGENIMSVDDIGVPGSHNVENALATIAVAKLAGISNQVIRETLSNFGG”, the “soluble on expression in E. coli” value is reported as “not soluble”.
